Reference: paper PMC5645467

Biological target: ΔIBB-importin α1 (as used for ITC) (mouse), P52293
Assay: ITC; nano-ITC, 20 °C; GST-RCC1 (300 µM) injected in 2.0 µl increments into 195 µl of ΔIBB-importin α3 or α1 (100 µM); 20 mM Tris-HCl pH 8.0, 150 mM NaCl, 5 mM BME, 0.1 mM PMSF; single set of binding sites model; triplicate
Settings: remark: other sources report otherwise

Kd: 5.4 µM
stoichiometry N: < 1
B1: GST-RCC1 (full-length human RCC1, wild type), P18754 1-421 (natural protein)
chain: MSPKRIAKRRSPPADAIPKSKKVKVSHRSHSTEPGLVLTLGQGDVGQLGLGENVMERKKPALVSIPEDVVQAEAGGMHTVCLSKSGQVYSFGCNDEGALGRDTSVEGSEMVPGKVELQEKVVQVSAGDSHTAALTDDGRVFLWGSFRDNNGVIGLLEPMKKSMVPVQVQLDVPVVKVASGNDHLVMLTADGDLYTLGCGEQGQLGRVPELFANRGGRQGLERLLVPKCVMLKSRGSRGHVRFQDAFCGAYFTFAISHEGHVYGFGLSNYHQLGTPGTESCFIPQNLTSFKNSTKSWVGFSGGQHHTVCMDSEGKAYSLGRAEYGRLGLGEGAEEKSIPTLISRLPAVSSVACGASVGYAVTKDGRVFAWGMGTNYQLGTGQDEDAWSPVEMMGKQLENRVVLSVSSGGQHTVLLVKDKEQS
